Data on 77 sequences can be found in the supplement of paper PMC7877785.

± gives the uncertainty stated by the source.

The data set in a line: self-splicing fitness, log relative to wild type (ln ratio); higher = more splicing; Tetrahymena group I intron in knt gene, E. coli kanamycin selection, DiMSum; sequences stand for … in CUCUCU…GGAGGGAAAAGUUAUCAGGCAUGCACCUGGUAGCUAGUCUUUAAACCAAUAGAUUGCAUCGGUUUAAAAGGCAAGACCGUCAAAUUGCGGGAAAGGGGUCAACAGCCGUUCAGUACCAAGUCUCAGGGGAAACUUUGAGAUGGCCUUGCAAAGGGUAUGGUAAUAAGCUGACGGACAUGGUCCUAACCACGCAGCCAAGUCCUAAGUCAACAGAUCUUCUGUUGAUAUGGAUGCAGUUCACAGACUAAAUGUCGGUCGGGGAAGAUGUAUUCUUCUCAUAAGAUAUAGUCGGACCUCUCCUUAAUGGGAGCUAGCGGAUGAAGUGAUGCAACACUGGAGCCGCUGGGAACUAAUUUGUAUGCGAAAGUAUAUUGAUUAGUUUUGGAGUACUCGUGGUCG
The gist of the method: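 DiMSum derived fitness as the error-weighted combination of fold changes across replicates, kanamycin versus no kanamycin, normalised to wild type. E. coli BL21(DE3) held the library, which randomised all eight P1ex-region intron nucleotides within the knt kanamycin-resistance gene on pET-22b(+). Six replicate transformations grew overnight at 37°C or 30°C on LB agar with or without 25 μg/mL kanamycin, also containing 100 μg/mL carbenicillin, 50 μM IPTG and 0.2% rhamnose, and pooled colonies were amplicon-sequenced on an Illumina HiSeq 2500.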

With CUCGAGCAAUAUUACGCAGU, the “self-splicing fitness (ln)” value by setting is: (30 °C) -2.06 ± 0.12; (37 °C) -2.83 ± 0.25.
For CCUCAGCAAUAUUACGAUGG the same measures were -4.2 ± 0.19 and -2.69 ± 0.16.
For UGCGAGCAAUAUUACGUCUU the same measures were -2.61 ± 0.16 and -2.04 ± 0.16.
For AAGGAGCAAUAUUACGGCCU the same measures were -1.62 ± 0.12 and -0.486 ± 0.12.
Regarding AGUGAGCAAUAUUACGUCUU, the “self-splicing fitness (ln)” value by setting is: (30 °C) -1.07 ± 0.082; (37 °C) -1.31 ± 0.1.
For GCGCAGCAAUAUUACGCUAC the same measures were -1.82 ± 0.17 and -1.71 ± 0.3.
For ACUUAGCAAUAUUACGGACU, in that order: -0.341 ± 0.096 and 0.14 ± 0.16.
For UCAUAGCAAUAUUACGAAUG, in that order: -2.7 ± 0.16 and -1.83 ± 0.16.
As to UAAAAGCAAUAUUACGAUGC, the “self-splicing fitness (ln)” value is -3.82 ± 0.29 (30 °C) and -2.3 ± 0.18 (37 °C).
For CAUAAGCAAUAUUACGAUAA, in that order: -4.17 ± 0.37 and -1.45 ± 0.2.
As to UGACAGCAAUAUUACGCUAG, the “self-splicing fitness (ln)” value by setting is: (30 °C) -1.37 ± 0.076; (37 °C) -0.358 ± 0.11.
For ACUUAGCAAUAUUACGCCGG the same measures were -1.08 ± 0.14 and -0.478 ± 0.18.
For GUCCAGCAAUAUUACGGUAA, in that order: -0.283 ± 0.086 and 0.647 ± 0.079.
For UACUAGCAAUAUUACGAAUA, in that order: -1.51 ± 0.18 and -0.474 ± 0.13.
As for GCAGAGCAAUAUUACGUGAG, the “self-splicing fitness (ln)” value reads like this: (30 °C) -1.62 ± 0.08; (37 °C) -1.65 ± 0.1.
For UAGCAGCAAUAUUACGCUAG, in that order: -2.94 ± 0.12 and -1.96 ± 0.17.
UUUCAGCAAUAUUACGGUUG: the “self-splicing fitness (ln)” value is -1.62 ± 0.091 (30 °C) and -1.1 ± 0.12 (37 °C).
For ACCCAGCAAUAUUACGCCAG the same measures were -3.26 ± 0.21 and -2.55 ± 0.33.
For CAAUAGCAAUAUUACGGUUA the same measures were -1.4 ± 0.12 and -1.24 ± 0.1.
As for UGUUAGCAAUAUUACGCUAU, the “self-splicing fitness (ln)” value is, setting by setting: (30 °C) -3.53 ± 0.49; (37 °C) -1.29 ± 0.32.
For GAGAAGCAAUAUUACGCAAU the same measures were -3.12 ± 0.17 and -1.52 ± 0.14.
For GGAAAGCAAUAUUACGGUUA the same measures were -1.33 ± 0.11 and -0.365 ± 0.099.
For ACCGAGCAAUAUUACGCUGG, in that order: -4.24 ± 0.26 and -2.13 ± 0.21.
Regarding UGAGAGCAAUAUUACGCCAC, the “self-splicing fitness (ln)” value reads like this: (30 °C) -2.36 ± 0.31; (37 °C) -1.1 ± 0.42.
On to CGUUAGCAAUAUUACGGCAG, for which the “self-splicing fitness (ln)” value runs as follows: (30 °C) -0.122 ± 0.1; (37 °C) 0.3 ± 0.12.
For AAGUAGCAAUAUUACGCGUG, in that order: -0.856 ± 0.067 and -0.191 ± 0.092.
For UCUCAGCAAUAUUACGACGG, in that order: -0.806 ± 0.071 and -0.119 ± 0.094.
On to UCCGAGCAAUAUUACGAAAU, for which the “self-splicing fitness (ln)” value (30 °C) was -4.17 ± 0.34.
Still for that read-out and setting: the figure for GAGGAGCAAUAUUACGAGAU is -2.78 ± 0.32.
Turning to UGUCAGCAAUAUUACGACUA, the “self-splicing fitness (ln)” value (30 °C) was -0.425 ± 0.073 and the “self-splicing fitness (ln)” value (37 °C) worked out at 0.686 ± 0.11.
As to GUGUAGCAAUAUUACGUUAG, the “self-splicing fitness (ln)” value is -2.45 ± 0.25 (30 °C) and -1.56 ± 0.22 (37 °C).
For CGGUAGCAAUAUUACGCCAG the same measures were -0.874 ± 0.092 and -1.03 ± 0.14.
For GCACAGCAAUAUUACGGCAC, in that order: -0.752 ± 0.061 and -0.122 ± 0.073.
For CAGUAGCAAUAUUACGACUU the same measures were 0.0553 ± 0.058 and 0.35 ± 0.071.
Consider ACCCAGCAAUAUUACGAUUU, for which the “self-splicing fitness (ln)” value was -0.881 ± 0.054 (30 °C) and 0.0888 ± 0.069 (37 °C).
For CCCCAGCAAUAUUACGCGGC, in that order: -2.98 ± 0.16 and -3.16 ± 0.4.
For ACCUAGCAAUAUUACGUUCA the same measures were -1.4 ± 0.099 and -1.05 ± 0.12.
For CGAAAGCAAUAUUACGCAUA the same measures were -3.13 ± 0.25 and -2.72 ± 0.2.
With GCAAAGCAAUAUUACGCCCU, the “self-splicing fitness (ln)” value was -0.279 ± 0.2 (30 °C) and 0.0848 ± 0.16 (37 °C).
For AUCCAGCAAUAUUACGCCCU, in that order: -0.182 ± 0.15 and -0.00746 ± 0.21.
For UGUUAGCAAUAUUACGAGUG, in that order: -0.0674 ± 0.16 and -0.336 ± 0.18.
For UCUAAGCAAUAUUACGCGGU, in that order: -3.76 ± 0.29 and -1.4 ± 0.2.
Turning to ACCGAGCAAUAUUACGUCCA, the “self-splicing fitness (ln)” value (37 °C) was -0.553 ± 0.21.
Turning to UCCCAGCAAUAUUACGAUAG, the “self-splicing fitness (ln)” value (30 °C) is -3.91 ± 0.26 and the “self-splicing fitness (ln)” value (37 °C) is -1.97 ± 0.23.
For UCCAAGCAAUAUUACGGCAU, in that order: -3.77 ± 0.21 and -1.48 ± 0.12.
For UCACAGCAAUAUUACGCUGA, in that order: -2.76 ± 0.18 and -1.54 ± 0.14.
For UAAUAGCAAUAUUACGUGGU, in that order: -4.96 ± 0.28 and -2.75 ± 0.15.
With UUGUAGCAAUAUUACGCUGU, the “self-splicing fitness (ln)” value by setting is: (30 °C) -3.02 ± 0.35; (37 °C) -2.49 ± 0.27.
For AUGAAGCAAUAUUACGGUUG the same measures were -0.993 ± 0.11 and -1.49 ± 0.12.
For AACUAGCAAUAUUACGUAAU, in that order: -1.82 ± 0.098 and -0.948 ± 0.099.
Turning to CCAUAGCAAUAUUACGUGGC, the “self-splicing fitness (ln)” value is -4.63 ± 0.29 (30 °C) and -2.43 ± 0.24 (37 °C).
For CGCAAGCAAUAUUACGAUCA, in that order: -1.58 ± 0.12 and 0.00155 ± 0.11.
For UGAUAGCAAUAUUACGCGAA, in that order: -2.64 ± 0.44 and -1.49 ± 0.26.
For CAGCAGCAAUAUUACGGUUU, in that order: -0.8 ± 0.062 and -0.225 ± 0.084.
As to AGAUAGCAAUAUUACGGACC, the “self-splicing fitness (ln)” value is -0.504 ± 0.15 (30 °C) and -0.242 ± 0.12 (37 °C).
For AUCCAGCAAUAUUACGAUAG, in that order: -2.71 ± 0.25 and -2.84 ± 0.31.
For GUACAGCAAUAUUACGCUUC the same measures were -2.54 ± 0.19 and -2.69 ± 0.26.
For AGCCAGCAAUAUUACGUCUG, the “self-splicing fitness (ln)” value is, setting by setting: (30 °C) -4.62 ± 0.25; (37 °C) -1.94 ± 0.17.
For UUCGAGCAAUAUUACGGAUU the same measures were -3.84 ± 0.23 and -3.1 ± 0.29.
CCGAAGCAAUAUUACGUACU: the “self-splicing fitness (ln)” value reads like this: (30 °C) -3.91 ± 0.27; (37 °C) -2.39 ± 0.19.
For GACGAGCAAUAUUACGUGCG, in that order: -2.7 ± 0.17 and -0.259 ± 0.11.
As to GUACAGCAAUAUUACGCUAG, the “self-splicing fitness (ln)” value reads like this: (30 °C) -1.88 ± 0.12; (37 °C) -0.374 ± 0.12.
Turning to CAGCAGCAAUAUUACGGCAU, the “self-splicing fitness (ln)” value is, setting by setting: (30 °C) -0.874 ± 0.074; (37 °C) -0.81 ± 0.096.
For CAAGAGCAAUAUUACGACGA, in that order: -3.01 ± 0.2 and -1.77 ± 0.23.
With UCUCAGCAAUAUUACGAAAU, the “self-splicing fitness (ln)” value (37 °C) was -2.86 ± 0.32.
Consider GGUUAGCAAUAUUACGACGU, for which the “self-splicing fitness (ln)” value by setting is: (30 °C) 0.152 ± 0.071; (37 °C) 0.738 ± 0.089.
As for CUUCAGCAAUAUUACGCCUU, the “self-splicing fitness (ln)” value is, setting by setting: (30 °C) -2.35 ± 0.15; (37 °C) -3.25 ± 0.25.
With GGAGAGCAAUAUUACGUGCC, the “self-splicing fitness (ln)” value (37 °C) is -2.38 ± 0.42.
As to CGGCAGCAAUAUUACGCGGA, the “self-splicing fitness (ln)” value (37 °C) was -2.7 ± 0.3.
With CUCCAGCAAUAUUACGAACU, the “self-splicing fitness (ln)” value is, setting by setting: (30 °C) -2.92 ± 0.33; (37 °C) -1.12 ± 0.29.
For CCGAAGCAAUAUUACGUCAC, where the note is “30 °C”, the “self-splicing fitness (ln)” value is -3.29 ± 0.35.
Still for that read-out and setting: the figure for UAAUAGCAAUAUUACGCAUC is -2.08 ± 0.49.
As for UAUCAGCAAUAUUACGAACC, the “self-splicing fitness (ln)” value was -1.66 ± 0.24 (30 °C) and -0.148 ± 0.38 (37 °C).
For GCCCAGCAAUAUUACGCCUG, in that order: -3.5 ± 0.3 and -2.64 ± 0.26.
With GCGAAGCAAUAUUACGGGUA, the “self-splicing fitness (ln)” value by setting is: (30 °C) -3.04 ± 0.23; (37 °C) -0.904 ± 0.17.
For GACCAGCAAUAUUACGAAAU the same measures were -1.34 ± 0.093 and -0.476 ± 0.098.
For UAUCAGCAAUAUUACGGCCU, the “self-splicing fitness (ln)” value is -1.64 ± 0.1 (30 °C) and 0.0592 ± 0.12 (37 °C).
